# Test results as given in patent US20240083959A1 (INSTITUTE FOR BASIC SCIENCE, published 2024).
# T1: recombinant Lectin-Olfactomedin-like domains of human LPHN1 (human, UniProt O94910 25-398, limits assumed)
# T1 construct: domain: Lectin-Olfactomedin-like domains; also called Lec/Olf domains of LPHN1; Lec-Olf domains of LPHN1
# T1 sequence (looked up): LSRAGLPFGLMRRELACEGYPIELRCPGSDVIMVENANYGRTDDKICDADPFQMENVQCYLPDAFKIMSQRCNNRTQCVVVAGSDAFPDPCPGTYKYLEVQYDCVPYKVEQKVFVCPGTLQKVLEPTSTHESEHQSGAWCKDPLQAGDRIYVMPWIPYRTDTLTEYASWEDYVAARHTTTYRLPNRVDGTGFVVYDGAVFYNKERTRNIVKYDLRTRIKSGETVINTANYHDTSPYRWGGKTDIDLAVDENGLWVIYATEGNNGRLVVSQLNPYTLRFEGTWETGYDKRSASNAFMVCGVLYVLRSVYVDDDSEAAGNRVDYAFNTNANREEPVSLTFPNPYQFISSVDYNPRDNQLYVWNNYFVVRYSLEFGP
# T2: recombinant Lectin-Olfactomedin-like domains of human LPHN3 (human, UniProt Q9HAR2 20-393, limits assumed)
# T2 construct: domain: Lectin-Olfactomedin-like domains; also called Lec/Olf domains of LPHN3; Lec-Olf domains of LPHN3
# T2 sequence (looked up): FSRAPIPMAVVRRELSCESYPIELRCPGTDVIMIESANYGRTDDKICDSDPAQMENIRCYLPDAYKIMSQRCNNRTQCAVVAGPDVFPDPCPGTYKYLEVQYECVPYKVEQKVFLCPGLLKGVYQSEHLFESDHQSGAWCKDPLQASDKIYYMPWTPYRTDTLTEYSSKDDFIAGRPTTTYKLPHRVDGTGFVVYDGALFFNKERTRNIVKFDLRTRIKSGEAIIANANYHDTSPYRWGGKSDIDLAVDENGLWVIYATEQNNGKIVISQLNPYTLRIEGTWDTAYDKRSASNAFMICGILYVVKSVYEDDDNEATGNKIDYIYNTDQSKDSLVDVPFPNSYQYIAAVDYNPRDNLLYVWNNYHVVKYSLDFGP
# T3: recombinant human LPHN2 lectin-olfactomedin-like domain, residues F26-P394 (human, UniProt O95490 26-394)
# T3 construct: range 26-394; Coated on the plate at 100 nM; also called LPHN2 Lec/Olf domains; Lec-Olf domain
# T3 sequence (looked up): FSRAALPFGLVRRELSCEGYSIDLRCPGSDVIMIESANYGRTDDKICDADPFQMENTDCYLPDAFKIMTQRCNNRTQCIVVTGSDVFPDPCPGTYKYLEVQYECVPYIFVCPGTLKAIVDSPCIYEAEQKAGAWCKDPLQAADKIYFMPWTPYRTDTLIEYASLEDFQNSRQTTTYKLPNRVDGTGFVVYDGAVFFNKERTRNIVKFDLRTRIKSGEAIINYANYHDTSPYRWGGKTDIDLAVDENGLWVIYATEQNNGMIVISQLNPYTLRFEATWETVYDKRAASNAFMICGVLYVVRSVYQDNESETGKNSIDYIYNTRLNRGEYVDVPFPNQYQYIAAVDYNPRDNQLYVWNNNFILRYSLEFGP
# B1: recombinant human LPHN2 olfactomedin-like domain, residues V135-P394 (receptor, UniProt O95490 135-394, looked up)
# chain: VCPGTLKAIVDSPCIYEAEQKAGAWCKDPLQAADKIYFMPWTPYRTDTLIEYASLEDFQNSRQTTTYKLPNRVDGTGFVVYDGAVFFNKERTRNIVKFDLRTRIKSGEAIINYANYHDTSPYRWGGKTDIDLAVDENGLWVIYATEQNNGMIVISQLNPYTLRFEATWETVYDKRAASNAFMICGVLYVVRSVYQDNESETGKNSIDYIYNTRLNRGEYVDVPFPNQYQYIAAVDYNPRDNQLYVWNNNFILRYSLEFGP
# notes: range 135-394; Expressed with an Fc tag and released untagged with thrombin; also called Olf domain of LPHN2
# B2: recombinant human LRG1 (leucine-rich alpha-2 glycoprotein 1), residues V36-Q347, untagged, glycosylated (ligand)
# chain: VTLSPKDCQVFRSDHGSSISCQPPAEIPGYLPADTVHLAVEFFNLTHLPANLLQGASKLQELHLSSNGLESLSPEFLRPVPQLRVLDLTRNALTGLPPGLFQASATLDTLVLKENQLEVLEVSWLHGLKALGHLDLSGNRLRKLPPGLLANFTLLRTLDLGENQLETLPPDLLRGPLQLERLHLEGNKLQVLGKDLLLPQPDLRYLFLNGNKLARVAAGAFQGLRQLDMLDLSNNSLASVPEGLWASLGQPNWDMRDGFDISGNPWICDQNLSDLYRWLQAQKDKMFSQNDTRCAGPEAVKGQTLLAVAKSQ
# modifications: glycosyl groups at T37 (O-linked), N79, N186, N269 and N325 (N-linked), numbered on SEQ ID NO: 1
# notes: also called wild-type LRG1; wild LRG1
# B3: deglycosylated LRG1 (LRG1 treated with PNGase F) (ligand)
# chain: B2 chain
# modifications: N-linked glycans removed with PNGase F (sites N79, N186, N269, N325 on SEQ ID NO: 1)
# notes: For FACS it was conjugated with Alexa 647; also called DG-LRG1; deglycosylated form
# Legend:
# [1] = target: B2; experiment: solid-phase binding assay (ELISA), plate coated with LPHN2 ectodomain variants
# Procedure: (§1) Solid phase binding analysis was performed by a known method (Mol Cancer Ther 14, 470-479 (2015)). LPHN2 extracellular domain variants (Lec, Olf, GAIN/GPS domain; 100 nM) were added to MaxiSorp 96-well plates (Nunc) and incubated at room temperature for 1 hour. The wells were washed twice with PBS and then incubated with 1% bovine serum albumen (BSA) for 2 hours. After blocking, various amounts (0.001, 0.005, 0.01, 0.05, 0.1, 0.5, 1, 5 or 10 μM) of wild-type LRG1 or DG-LRG1 were added to 96-well plates coated with the indicated LPHN2 extracellular domain variants. LRG1 bound to the coated protein was detected by ELISA using an anti-LRG1 antibody (Cat #sc517443, Santa Cruz) and a peroxidase-conjugated anti-mouse secondary antibody (Cat #62-6520, Thermo Fisher Scientific).
# [2] = target: T1, recombinant Lectin-Olfactomedin-like …; experiment: solid-phase binding assay (ELISA), plate coated with 100 nM Lec-Olf domain
# Procedure: (§2) FIG. 8E: results of solid phase binding assay to evaluate binding of wild-type LRG1 and DG-LRG1 to the Lec-Olf domains of LPHN1 and LPHN3. The plates were coated with Lec-Olf domains (100 nM) of LPHN1 and LPHN3. After washing and blocking, different amounts (0.001, 0.005, 0.01, 0.05, 0.1, 0.5, 1, 5 and 10 μM) of wild-type LRG1 or DG-LRG1 were added and LRG1 or DG-LRG1 bound to coated proteins were detected by ELISA using anti-LRG1 antibody and anti-mouse secondary antibody.
# [3] = target: T2, recombinant Lectin-Olfactomedin-like …; experiment: as above
# Procedure: as §2
# [4] = target: T3, recombinant human LPHN2 …; experiment: solid-phase binding assay (ELISA), plate coated with LPHN2 Lec/Olf domains
# Procedure: as §1
# Whether or not deglycosylation of LRG1 (DG-LRG1) affects the binding affinity to LPHN2 in vitro (FIG. 7B) and ex vivo (FIGS. 7C and 8C) was determined. […] Cell surface binding rates of LRG1 and DG-LRG1 in HUVEC and HEK293T cells were evaluated and verified again (Table 3, FIGS. 7C and 8C)
binding result [1],Kd [4],Binder,binding result [2],binding result [3]
binds,–,B1,–,–
–,0.92 µM,B2,no binding (tested: 0.001 to 10 µM added),no binding (tested: 0.001 to 10 µM added)
–,0.45 µM,B3,no binding (tested: 0.001 to 10 µM added),no binding (tested: 0.001 to 10 µM added)
